Results on four molecules are retold here after patent US20250313611A1 (VIB VZW, published 2025).

Like-named read-outs stand apart in the source and are kept apart here.

For assay [1], the target named is T1, SARS-COV-2 RBD (His-tagged, Sinobiologicals) (SARS-CoV-2 (Wuhan), UniProt P0DTC2 319-541). Put plainly: ELISA, periplasmic extract 1/10, OD450 antigen/OD450 BSA. Background: ELISA stands for enzyme-linked immunosorbent assay.
In assay [2] the target is T2, recombinant MERS-COV spike protein (MERS-CoV, UniProt K9N5Q8 18-1291).
T2 sequence: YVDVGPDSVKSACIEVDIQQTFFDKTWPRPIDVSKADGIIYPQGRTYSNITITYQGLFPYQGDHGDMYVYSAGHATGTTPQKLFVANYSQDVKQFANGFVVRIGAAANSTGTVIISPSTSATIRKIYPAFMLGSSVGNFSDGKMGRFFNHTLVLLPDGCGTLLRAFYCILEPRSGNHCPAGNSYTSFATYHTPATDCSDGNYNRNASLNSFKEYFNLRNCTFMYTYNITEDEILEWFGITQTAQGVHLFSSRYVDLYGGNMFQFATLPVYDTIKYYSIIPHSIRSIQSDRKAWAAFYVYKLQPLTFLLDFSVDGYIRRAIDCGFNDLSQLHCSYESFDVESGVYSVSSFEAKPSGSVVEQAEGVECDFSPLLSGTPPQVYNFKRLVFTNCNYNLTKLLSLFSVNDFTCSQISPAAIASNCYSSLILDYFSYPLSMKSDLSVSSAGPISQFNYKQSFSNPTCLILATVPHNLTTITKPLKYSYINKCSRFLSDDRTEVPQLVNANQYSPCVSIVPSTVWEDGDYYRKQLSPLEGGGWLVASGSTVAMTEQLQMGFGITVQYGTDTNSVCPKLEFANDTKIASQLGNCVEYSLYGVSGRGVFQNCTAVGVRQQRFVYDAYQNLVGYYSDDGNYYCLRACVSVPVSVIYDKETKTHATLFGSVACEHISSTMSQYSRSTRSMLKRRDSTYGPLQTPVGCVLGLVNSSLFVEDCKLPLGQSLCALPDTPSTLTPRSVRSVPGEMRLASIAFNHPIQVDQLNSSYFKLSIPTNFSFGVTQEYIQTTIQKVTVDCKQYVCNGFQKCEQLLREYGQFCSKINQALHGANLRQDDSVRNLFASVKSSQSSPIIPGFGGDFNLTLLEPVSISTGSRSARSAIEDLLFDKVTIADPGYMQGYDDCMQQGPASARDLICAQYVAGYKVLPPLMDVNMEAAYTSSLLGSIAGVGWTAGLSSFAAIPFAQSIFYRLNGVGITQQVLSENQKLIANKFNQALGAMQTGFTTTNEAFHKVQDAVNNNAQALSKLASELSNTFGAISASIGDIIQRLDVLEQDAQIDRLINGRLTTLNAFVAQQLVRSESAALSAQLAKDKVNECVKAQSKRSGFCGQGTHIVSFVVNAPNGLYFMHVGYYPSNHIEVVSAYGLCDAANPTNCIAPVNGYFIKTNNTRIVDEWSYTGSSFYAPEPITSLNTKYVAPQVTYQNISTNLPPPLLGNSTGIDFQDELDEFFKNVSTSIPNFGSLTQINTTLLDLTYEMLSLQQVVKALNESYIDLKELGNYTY
In words: ELISA, periplasmic extract 1/10, heat map of binding (%).

Assay [3] deals with T3, recombinant HKU1 spike protein (HCoV-HKU1, UniProt Q5MQD0 13-1276).
T3 sequence: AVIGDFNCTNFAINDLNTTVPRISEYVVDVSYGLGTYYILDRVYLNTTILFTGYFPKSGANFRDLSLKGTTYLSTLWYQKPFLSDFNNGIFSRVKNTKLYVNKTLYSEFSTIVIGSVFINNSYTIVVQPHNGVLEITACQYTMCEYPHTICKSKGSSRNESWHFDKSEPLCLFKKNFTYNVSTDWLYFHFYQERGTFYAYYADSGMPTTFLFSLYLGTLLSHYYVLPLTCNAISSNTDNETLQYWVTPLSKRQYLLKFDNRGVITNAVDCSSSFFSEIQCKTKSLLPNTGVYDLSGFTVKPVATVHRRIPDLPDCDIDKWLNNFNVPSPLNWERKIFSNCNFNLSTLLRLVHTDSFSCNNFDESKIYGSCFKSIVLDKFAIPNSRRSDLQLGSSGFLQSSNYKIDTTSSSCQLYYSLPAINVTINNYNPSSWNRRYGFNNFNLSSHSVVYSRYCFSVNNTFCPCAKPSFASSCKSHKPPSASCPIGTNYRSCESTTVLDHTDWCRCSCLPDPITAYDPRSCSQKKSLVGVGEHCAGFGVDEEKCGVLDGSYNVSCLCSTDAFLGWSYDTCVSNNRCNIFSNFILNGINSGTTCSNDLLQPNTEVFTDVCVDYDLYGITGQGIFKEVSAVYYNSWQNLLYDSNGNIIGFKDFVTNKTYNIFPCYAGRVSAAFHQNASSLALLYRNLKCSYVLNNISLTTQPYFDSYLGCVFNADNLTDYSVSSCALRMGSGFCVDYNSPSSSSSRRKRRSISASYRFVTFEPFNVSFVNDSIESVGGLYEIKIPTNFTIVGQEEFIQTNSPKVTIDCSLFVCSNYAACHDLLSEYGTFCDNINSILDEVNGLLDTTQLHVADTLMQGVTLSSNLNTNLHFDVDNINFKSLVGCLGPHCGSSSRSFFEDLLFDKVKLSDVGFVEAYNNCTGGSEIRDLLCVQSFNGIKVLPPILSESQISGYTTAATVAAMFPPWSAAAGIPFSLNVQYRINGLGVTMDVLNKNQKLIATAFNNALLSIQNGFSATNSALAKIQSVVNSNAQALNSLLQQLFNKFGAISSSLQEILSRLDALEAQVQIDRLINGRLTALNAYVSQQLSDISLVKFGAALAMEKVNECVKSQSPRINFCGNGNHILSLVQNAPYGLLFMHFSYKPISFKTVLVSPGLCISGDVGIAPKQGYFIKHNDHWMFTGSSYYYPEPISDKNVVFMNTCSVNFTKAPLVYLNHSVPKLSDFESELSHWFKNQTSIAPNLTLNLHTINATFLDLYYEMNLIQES
The description is as above.

Assay [4] deals with T1, SARS-COV-2 RBD (His-tagged, …). Put plainly: ELISA, periplasmic extract 1/10, OD450 antigen/OD450 BSA. The source holds these as a separate data set.

B1: 3.83 (VHH)
VHH: QVQLQESGGGLVQPGDSLRLSCVLSGGVFTSYAMGWFRQAPGKEREFLAAITFNSDATYYADSVKGRFTISRDNAKNTAYLQMNSLKPNDTAVYSCAAGGNHYNPQYYHDYDKYDHWGQGTQVTVSS
As for B1, in assay [1], the binding result is “binds”.

B2: VHH R3_DC5 (VHH)
VHH: QVQLQESGGGLVQAGDSLRLSCAASGRIFSTYTMGWFRQAPGMEREFVAAIRWSGSTVYYADSVKGRFTISRDNAKNTVYLQMNSLKPEDTAVYYCAAARVSKANYGTLWYRATGLYDYWGQGTQVTVSS
For the molecule B2, the binding result is on record as “no binding (tested: extract 1/10, concentration not given)” in assay [2]; “no binding (tested: extract 1/10, concentration not given)” in assay [3]; “no binding (tested: extract 1/10, concentration not given)” in assay [4].

B3: VHH R3_DC21 (VHH)
VHH: QVQLQESGGGLVQAGDSLRLSCAVSGRPFSTYTMGWFRQAPGKEREFVAAMRWSGGTIYYADSVRGRFTISRDNDKNTVNLEMNSLKPEDTAVYYCAAAYVSKANYGSLWYRASGLYDYWGQGTQVTVSS
For B3, the binding result is listed as “no binding (tested: extract 1/10, concentration not given)” in assay [2]; “no binding (tested: extract 1/10, concentration not given)” in assay [3]; “no binding (tested: extract 1/10, concentration not given)” in assay [4].

B4: VHH R3_DC19 (VHH)
VHH: QVQLQESGGGLVQPGDSLRLSCAVSGRPFSTYTMGWFRQAPGKEREFVAAMRWSGGTIYYADSVKGRFTISRDNDKNTVNLEMNSLKPEDTAVYYCAAAYVSKANYGSLWYRASGLYDYWGQGTQVTVSS
As for B4, the binding result was “no binding (tested: extract 1/10, concentration not given)” in assay [2]; “no binding (tested: extract 1/10, concentration not given)” in assay [3]; “no binding (tested: extract 1/10, concentration not given)” in assay [4].
